Measured values published in US20170015738A1.
Blank lines part the entries; values can stand above or below the binder they belong to.

Columns and labels:
[1] = biological target: hyper-phosphorylated P301L mutant human 4R0N tau from rTg4510 mouse brain (64 and 70 kDa species; P3 / brain extract) (human) (UniProt P10636); assay: MSD ELISA on immobilised P3; ratio of binding to Tg4510 over wt mouse material
[2] = biological target: hyper-phosphorylated P301L mutant human 4R0N tau from rTg4510 mouse brain (64 and 70 kDa species; P3 / brain extract) (human) (UniProt P10636); assay: immunodepletion of rTg4510 brain extract with antibody on Protein G Dynabeads; western blot
[3] = biological target: hyper-phosphorylated P301L mutant human 4R0N tau from rTg4510 mouse brain (64 and 70 kDa species; P3 / brain extract) (human) (UniProt P10636); assay: immunodepletion of rTg4510 brain extracts; western blot quantification (FIG. 14)
[4] = biological target: hyper-phosphorylated P301L mutant human 4R0N tau from rTg4510 mouse brain (64 and 70 kDa species; P3 / brain extract) (human) (UniProt P10636); assay: fluid phase MSD ELISA: antibody mixed with rTg4510 P3 in solution, capture on C10-2 coated plates
[5] = biological target: hyper-phosphorylated P301L mutant human 4R0N tau from rTg4510 mouse brain (64 and 70 kDa species; P3 / brain extract) (human) (UniProt P10636); assay: cell-based or functional assay
[6] = biological target: aggregated tau in rTg4510 brain extract (Cisbio assay) (human) (UniProt P10636); assay: immunodepletion of rTg4510 brain extract with antibody on Protein G Dynabeads; Cisbio aggregation assay
Chain of aggregated tau in rTg4510 brain extract (Cisbio assay) (human) (P10636 other isoform, or with tags, fused parts or gaps): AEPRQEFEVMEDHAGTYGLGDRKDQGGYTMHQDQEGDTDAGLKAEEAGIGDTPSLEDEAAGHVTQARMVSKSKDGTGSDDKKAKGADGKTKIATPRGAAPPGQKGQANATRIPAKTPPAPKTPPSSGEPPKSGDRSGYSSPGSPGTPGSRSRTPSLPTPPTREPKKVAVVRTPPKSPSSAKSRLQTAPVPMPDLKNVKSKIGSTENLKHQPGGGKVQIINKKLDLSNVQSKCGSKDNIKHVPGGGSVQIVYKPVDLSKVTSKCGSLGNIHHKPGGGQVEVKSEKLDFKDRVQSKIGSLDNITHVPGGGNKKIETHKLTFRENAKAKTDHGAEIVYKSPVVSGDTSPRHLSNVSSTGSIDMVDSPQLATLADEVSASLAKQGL

Chain of hyper-phosphorylated P301L mutant human 4R0N tau from rTg4510 mouse brain (64 and 70 kDa species; P3 / brain extract) (human) (P10636 other isoform, or with tags, fused parts or gaps P301L P301L): as the sequence (P10636 other isoform, or with tags, fused parts or gaps) above

TG/wt [1]: 1 fold
B1: 4E4 antibody (antibody, from another filing, V domains shown)
VH: EVQLVESGGGLVQPGGSLKLSCAASGFNFNISAIHWVRQASGKGLEWVGRIRSKSHNYATLYAASLKGRFTLSRDDSRNTAYLQMSSLQTEDMAVYYCTVLSANYDTFDYWGQGTLVTVSS
VL: SYELTQPPSVSVSPGQTARISCFGDTLPKQYTYWYQQKPGQAPVLVIYKDTERPSGIPERFSGSSSGTTVTLTISGVQAEDEADYYCLSADNSATWVFGGGTKVTVL

percent removed by immunodepletion [2]: 95%
percent reduction of the 64 kDa band [3]: 90%
B2: Antibody D1.2 (antibody, mouse IgG2b, kappa, V domains shown)
VH: QVQLQQSGAELVRPGASVTLSCKASGNTFTDYEIHWVKQTPVHGLEWIGAIDPETGNTAYNQKFKGKARLTADKSSSTAYMELRSLTSEDSAVYYCTRSRGFDYWGQGTTLTVSS
VL: DVMMTQTPLSLPVSLGDQASISCRSSQSLVHSNGNTYLHWHLQKPGQSPKFLIYKVSNRFSGVPDRFSGSGSGTDFTLKISRVEAEDLGVYFCSQSTHVPFTFGSGTKLEIKR

TG/wt [1]: 118 fold
IC50 [4]: 20 nM
percent removed by immunodepletion [2]: 95%
prevention of insoluble tau in HEK293 cells seeded with immunodepleted rTg4510 homogenate (western blot) [5]: 97%
prevention of tau aggregation in HEK293 cells seeded with immunodepleted rTg4510 homogenate (Cisbio assay) [5]: 88%
percent reduction of the 64 kDa band [3]: 90%
percent of tau aggregates removed [6]: 99%
B3: Antibody C10-2 (murine) (antibody, mouse IgG1, kappa, V domains shown)
VH: QVQLQQSDAELVKPGASVKISCKASGYTFTDRTIHWVKQRPEQGLEWIGYIYPGDGSTKYNENFKGKATLTADKSSSTAYMQLNSLTSEDSAVYFCARRGAMDYWGQGTSVTVSS
VL: DVQMIQSPSSLSASLGDIVTMTCQASQGTSINLNWFQQKPGKAPKLLIYGASNLEDGVPSRFSGSRYGTDFTLTISSLEDEDMATYFCLQHTYLPFTFGSGTKLEIKR
